Reference: patent US20230365703A1
Values belong to the substance of their own block, whether it stands above or below them.

Legend:
[1] = target: GPC3 on liver cancer cells (HepG2, HuH-7) (UniProt P51654); experiment: flow cytometry on HepG2 cells, Alexa Fluor 488 anti-human IgG; fit value of the flat control curve; unit inferred, unit taken from the axis Con.(nM)
[2] = target: IL12 receptors on H_IL12 Reporter 293 cells (UniProt P42701); experiment: cell-based or functional assay
[3] = target: CD47 on CD47-transfected CHO-K1 cells (Homo sapiens (Human)) (UniProt Q08722); experiment: flow cytometry on CD47-transfected CHO-K1 cells (CD38-/CD47+), anti-human IgG-FITC detection
[4] = target: human CD47-Fc chimeric protein (human) (UniProt Q08722); experiment: SPR (Biacore T200), human CD47-Fc captured on anti-human IgG (Fc) CM5 chip, analyte 50 nM, bivalent analyte model

IL12 receptors on H_IL12 Reporter 293 cells, sequence (Q99665 24-862 limits assumed, chain 2 of 2, other chains not shown): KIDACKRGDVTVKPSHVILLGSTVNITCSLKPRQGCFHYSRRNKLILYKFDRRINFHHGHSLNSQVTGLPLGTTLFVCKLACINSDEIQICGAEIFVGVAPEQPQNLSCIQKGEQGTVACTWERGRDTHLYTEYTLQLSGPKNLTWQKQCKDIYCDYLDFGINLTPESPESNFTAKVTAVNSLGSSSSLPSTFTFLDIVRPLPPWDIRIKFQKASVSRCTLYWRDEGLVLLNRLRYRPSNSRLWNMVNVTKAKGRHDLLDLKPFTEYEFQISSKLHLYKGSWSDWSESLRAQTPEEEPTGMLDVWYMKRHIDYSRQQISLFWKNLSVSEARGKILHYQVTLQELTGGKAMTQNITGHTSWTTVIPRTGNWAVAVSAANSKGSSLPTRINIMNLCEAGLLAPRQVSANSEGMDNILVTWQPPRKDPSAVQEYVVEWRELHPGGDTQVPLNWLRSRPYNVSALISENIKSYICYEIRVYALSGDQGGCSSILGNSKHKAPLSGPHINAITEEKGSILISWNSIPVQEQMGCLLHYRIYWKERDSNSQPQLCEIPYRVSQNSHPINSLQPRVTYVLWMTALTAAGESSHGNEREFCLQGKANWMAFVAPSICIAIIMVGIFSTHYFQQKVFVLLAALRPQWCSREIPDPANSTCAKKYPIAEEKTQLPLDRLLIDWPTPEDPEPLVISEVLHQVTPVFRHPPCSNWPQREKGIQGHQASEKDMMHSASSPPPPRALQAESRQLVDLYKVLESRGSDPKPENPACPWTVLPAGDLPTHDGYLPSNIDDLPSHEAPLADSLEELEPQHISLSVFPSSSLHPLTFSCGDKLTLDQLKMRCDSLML

- EC50 [1]: 3.4 nM
Substance: Human IgG1 homotype control (Isotype) (antibody)

- EC50 on H IL12 Reporter 293 cells (One-Glo signal; called binding affinity by the filing) [2]: 0.06 nM
Substance: IL12A and IL12B complex (from UniProt P29459 23-219; P29460 24-328) (ligand)

- EC50 (read off the curve) [3]: 0.8 nM
- Kd [4]: 37.3 nM
Substance: TTI-621 (Fc fusion)
